# Measurements taken from US6342201B1, “Complex compounds for diagnosis of vascular diseases” (Institut for Diagnostikforschung GmbH an der Freien …, priority 1994, dated 2002).
# Entries after “also recorded” stand apart in the source; their conditions may differ.
# Key:
# [1] = system: plaque as well as non-plaque regions of the aorta; experiment: Quantitative autoradiography and Sudan-III-dyeing of the removed aorta of WHHL-rabbits after i.v. application; set-up: species or system WHHL-rabbit; settings: in vivo
# Protocol: 74 MBq (2 mCi) of the respective compound according to the invention was applied via an ear vein in a WHHL-rabbit. 5 h p.i. the rabbit was killed and both a quantitative autoradiography and a Sudan-III-dyeing of the removed aorta were performed. The so-determined accumulation of the respective compounds according to the invention in the different tissues is listed in Table 1.
# 2 mCi (1 ml) of the analog to b) labelled […]was applied to a narcotized WHHL-rabbit (Rompun/Ketavet 1:2) via an ear vein. WHHL-rabbits reveal due a missing or defect LDL receptor high LDL levels in blood and therefore show spontaneous arteriosclerotic vascular changes. During the experimental time span of 5 h after application, static photographs with various exposure times and positions were taken with a gamma camera (Elcint SP4 HR). 5 h after application the rabbit was killed and both an autoradiography and a Sudan III dyeing of the aorta were performed. The arteriosclerotic plagues in the region of the aortic arch of the WHHL-rabbits could be depicted with 10 min p.i. in vivo. […] The enrichment factor between the normal and arteriosclerotic wall regions was between 6 and 9, depending on the plaque formation (Sudan III dyeing).
# [2] = system: arteriosclerotic plaques (aortic arch, a. carotis, abdominal aorta); experiment: In vivo gamma camera scintigraphy of WHHL-rabbits; set-up: species or system WHHL-rabbit
# Protocol: (§1) The order of the dissected tissues for each B1 and B2 from left to right: thoracic aorta, right denuded a. carotis and left untreated a. carotis.
# 2 mCi (1 ml) of the analog to b) labelled […]was applied to a narcotized WHHL-rabbit (Rompun/Ketavet 1:2) via an ear vein. WHHL-rabbits reveal due a missing or defect LDL receptor high LDL levels in blood and therefore show spontaneous arteriosclerotic vascular changes. During the experimental time span of 5 h after application, static photographs with various exposure times and positions were taken with a gamma camera (Elcint SP4 HR). 5 h after application the rabbit was killed and both an autoradiography and a Sudan III dyeing of the aorta were performed.
# [3] = system: denuded (arteriosclerotic) right a. carotis; experiment: Scintigram and autoradiogram of a New Zealand rabbit with right a. carotis denuded by Fogarty-catheter; format: in vivo; settings: right a. carotis denuded four weeks earlier, 0.5 h after i.v. application of 74 MBq
# From the text: as §1
Substance,Enrichment factor Plaque / Non-plaque [1],other results
Tc-99m-Complex of N-(4-hydroxycarboxy-1-oxo-3-thia-but-1-yl)-Cys-(D-Trp)-Leu-Asp-Ile-Ile-Trp [Example 5 c],9,
Tc-99m-Complex of Asp-Gly-Gly-Cys-Gly-Cys-Phe-(D-Trp)-Leu-Asp-Ile-Ile-Trp [Example 3 c],,"enrichment activity in vivo in left lateral scintigram ([2]; WHHL-rabbit versus New Zealand control rabbit, 0.5 h after i.v. application of 74 MBq, aortic arch, left a. carotis, abdominal aorta): observable enrichment activity in vivo; also recorded: enrichment activity is visible in vivo"
^99mTc-Complex of Asp-Gly-Gly-Cys-Gly-Cys-His-Leu-Asp-Ile-Ile-Trp [Example 1 c],,"time p.i. at which arteriosclerotic plaques in the region of the aortic arch could be depicted in vivo ([2]; WHHL-rabbit, 2 mCi via ear vein, gamma camera): 10 min"
^99mTc-Complex of Asp-Gly-Gly-Cys-Gly-Cys-D-Trp-Leu-Asp-Ile-Ile-Trp [Example 2 c],,in vivo detection of the arteriosclerotic right a. carotis in anterior scintigram [3]: could be detected in vivo
Tc-99m-Complex of N-(4-hydroxycarboxy-1-oxo-3-thia-but-1-yl)-Cys-Phe-(D-Trp)-Leu-Asp-Ile-Ile-Trp [Example 4 c],14,
Tc-99m-Complex of N-(4-hydroxycarboxy-1-oxo-3-thia-but-1-yl)-Cys-His-Leu-Asp-Ile-Ile-Trp [Example 6 c],5,
